Results published in article PMC3634827.

Columns and labels:
CoREST [1] = target: CoREST (UniProt Q8CFE3); assay: FLAG co-immunoprecipitation, immunoblot quantitated with ImageJ; conditions: NIH 3T3 cells transiently transfected; mean of two independent experiments; parent: est. 1.0; read off a plot
CoREST [2] = target: CoREST (UniProt Q8CFE3); assay: co-immunoprecipitation of endogenous proteins (CoREST IP'ed with Lsd1), immunoblot quantitated with ImageJ; conditions: primary MEFs; mean of three independent experiments; p<0.005 vs wild type; parent: est. 1.0; read off a plot
CoREST [3] = target: CoREST (UniProt Q8CFE3); assay: co-immunoprecipitation of endogenous proteins (Lsd1 IP'ed with CoREST), immunoblot quantitated with ImageJ; conditions: primary MEFs; mean of three independent experiments; p<0.001 vs wild type; parent: est. 1.0; read off a plot

Chain of UniProt Q8CFE3 (Q8CFE3 whole entry): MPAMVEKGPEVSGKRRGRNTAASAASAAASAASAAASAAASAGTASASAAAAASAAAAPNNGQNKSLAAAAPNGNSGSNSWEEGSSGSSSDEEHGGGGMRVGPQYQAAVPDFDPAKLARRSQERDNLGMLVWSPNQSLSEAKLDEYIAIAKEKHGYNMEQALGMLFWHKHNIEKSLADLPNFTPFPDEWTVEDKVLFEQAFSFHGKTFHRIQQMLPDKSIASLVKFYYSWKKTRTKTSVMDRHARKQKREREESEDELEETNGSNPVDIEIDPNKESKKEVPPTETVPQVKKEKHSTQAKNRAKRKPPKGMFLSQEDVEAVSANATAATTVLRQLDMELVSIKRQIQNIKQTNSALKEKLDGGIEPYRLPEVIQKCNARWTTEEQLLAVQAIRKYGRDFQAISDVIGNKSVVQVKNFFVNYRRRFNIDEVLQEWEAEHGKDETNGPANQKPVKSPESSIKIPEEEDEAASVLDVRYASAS

| Substance | ratio to parent (CoREST [1]) | ratio to parent (CoREST [2]) | ratio to parent (CoREST [3]) |
| --- | --- | --- | --- |
| endogenous wild-type Lsd1 (from UniProt Q6ZQ88) E413G; M448V | – | 0.44 | 0.11 |
| FLAG-tagged wild-type Lsd1 (lysine-specific demethylase 1) (from UniProt Q6ZQ88) N535A | 1.8 | – | – |
| FLAG-tagged wild-type Lsd1 (lysine-specific demethylase 1) (from UniProt Q6ZQ88) E413G | 0.89 | – | – |

Results, then the substance that gave them:

| ratio to parent (CoREST [1]) | ratio to parent (CoREST [2]) | ratio to parent (CoREST [3]) | Substance |
| --- | --- | --- | --- |
| 0.35 | – | – | FLAG-tagged wild-type Lsd1 (lysine-specific demethylase 1) (from UniProt Q6ZQ88) M448V |
| 0.09 | – | – | FLAG-tagged wild-type Lsd1 (lysine-specific demethylase 1) (from UniProt Q6ZQ88) E413G; M448V |
